Experimental data from PMC6769588.

Target: lectin-like oxidized LDL receptor 1 (LOX1) on bEnd.3 cells (mouse (endogenous in bEnd.3)) (UniProt Q9EQ09)
Chain of UniProt Q9EQ09 (Q9EQ09 whole entry): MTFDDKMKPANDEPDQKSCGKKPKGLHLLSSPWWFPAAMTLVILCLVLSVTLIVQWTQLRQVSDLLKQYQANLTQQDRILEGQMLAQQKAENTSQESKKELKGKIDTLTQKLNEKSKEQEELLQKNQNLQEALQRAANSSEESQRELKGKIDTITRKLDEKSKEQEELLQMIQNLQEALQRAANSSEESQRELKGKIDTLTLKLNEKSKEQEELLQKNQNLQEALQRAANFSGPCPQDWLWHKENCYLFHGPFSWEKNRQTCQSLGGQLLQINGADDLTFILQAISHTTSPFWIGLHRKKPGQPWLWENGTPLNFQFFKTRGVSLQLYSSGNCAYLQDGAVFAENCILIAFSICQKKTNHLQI

decrease in uptake of DiI-labeled acro-apoE3/rHDL (3 µg/mL) by bEnd.3 cells pre-treated with anti-LOX1 antibody: 80 % decrease
Substance: Acrolein-modified apolipoprotein E3 (acro-apoE3) (from UniProt P02649 19-317) (natural protein)
